Results: PMC3861103

Key:
[1] = target: T1, 6xHis-MBP-NHR-25 DBD (unmodified) (Caenorhabditis elegans, UniProt Q19345 1-173); test: EMSA; 500 nM protein, 1 uM DNA; 50 mM Tris pH 8.0, 150 mM NaCl, 10 mM MgCl2, 10 mM DTT, 10 mM ATP, 400 ug/ml BSA, 1 uM dsDNA, 500 nM protein (200-700 nM titration), room temperature 30 min; 4-20% TBE gel, SYBR Gold; conditions: protein: recombinant, tags: N-terminal 6xHis-MBP
T1 sequence: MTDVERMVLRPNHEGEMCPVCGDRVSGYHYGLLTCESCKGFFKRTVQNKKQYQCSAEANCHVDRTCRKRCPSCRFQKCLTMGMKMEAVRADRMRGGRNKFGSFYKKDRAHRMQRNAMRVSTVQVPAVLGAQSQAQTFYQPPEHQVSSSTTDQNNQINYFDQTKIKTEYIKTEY

[2] = target: T1, 6xHis-MBP-NHR-25 DBD (unmodified); test: EMSA; 1 uM DNA; 50 mM Tris pH 8.0, 150 mM NaCl, 10 mM MgCl2, 10 mM DTT, 10 mM ATP, 400 ug/ml BSA, 1 uM dsDNA, 500 nM protein (200-700 nM titration), room temperature 30 min; 4-20% TBE gel, SYBR Gold; conditions: protein: recombinant; tags: N-terminal 6xHis-MBP; blunt

B1: MIS WT (dsDNA)
DNA 1: GATCCGCCAGGCACTGTCCCCCAAGGTCACCTTTGGTGTTGATAAGATCCC
DNA 2: TCGAGGGATCTTATCAACACCAAAGGTGACCTTGGGGGACAGTGCCTGGCG
binding result ([1]; 5' overhangs 4 nt on both strands): binds

B2: CYP11A1 (dsDNA)
DNA 1: ACATTTTATCAGCTTCTGGTATGGCCTTGAGCTGGTAGTTATAATCTTGGC
DNA 2: GCCAAGATTATAACTACCAGCTCAAGGCCATACCAGAAGCTGATAAAATGT
binding result ([1]; blunt): binds

B3: 2xNR5RE WT (dsDNA)
DNA 1: CTAAAGGGAGCCAAGGTCATAGCGGCCAGTCAAGGCCAAGGGCGACAG
DNA 2: CTGTCGCCCTTGGCCTTGACTGGCCGCTATGACCTTGGCTCCCTTTAG
binding result [2]: binds
